Test results: patent publication US10624968B2, “Compounds for treating cancer” (Bicycle Therapeutics Limited, priority 2017, dated 2020)
Read-outs that look alike come from different tables or passages of the source. Starred links: 1 amine or outer side, 2 acyl side, 3 side chain; linkers in the order of their positions; H or OH if unused. Positions of bridges follow the written chain, without caps; N, C: chain ends. Non-standard residues stand in square brackets, D forms with d. Residues, ends and D or L forms follow the SMILES beside them. Chains are numbered I, II in the order given. ξ: configuration not given here. *: point of attachment. Dolaproine = CO[C@@H]([C@@H]1CCCN1)[C@@H](C)C(=O)O; Dil = CC[C@H](C)[C@H](NC)[C@@H](CC(=O)O)OC; TBMB = c1c(C[*:1])cc(C[*:3])cc1C[*:2]; X2 = O=C(CCCC(=O)[*:2])NCCC(=O)[*:1]; PABC = O=C(OCc1ccc(N[*:1])cc1)[*:2]; X1 = C[C@@H](N*)[C@@H](O)c1ccccc1; ξ1Nal = NC(Cc1cccc2ccccc12)C(=O)O; Cit = NC(=O)NCCC[C@H](N)C(=O)O; NMeV = CN[C@H](C(=O)O)C(C)C; ξY = NC(Cc1ccc(O)cc1)C(=O)O; ξTle = CC(C)(C)C(N)C(=O)O; ξF = NC(Cc1ccccc1)C(=O)O; ξE = NC(CCC(=O)O)C(=O)O; ξD = NC(CC(=O)O)C(=O)O; ξN = NC(=O)CC(N)C(=O)O; ξC = NC(CS)C(=O)O; ξA = CC(N)C(=O)O; Sar = CNCC(=O)O

Columns and labels:
L540 cells = assay: Cytotoxicity in L540 cells in presence and absence of 1 mM bacitracin (ATPlite, 72 hour exposure); format: cell-based
Procedure: L540 cells (DSMZ # ACC72, BIC5121), maintained in RPMI-1640 medium (Sigma # R8758)+20% heat-inactivated serum
L540—20 k cells/well: 40% confluent upon dosing.
Bacitracin=1 mM final concentration. This requires a 10 mM concentration with no DMSO.
Add 100 μL reagent per well. […] Shake for 20 mins before reading luminescence

[1] = Plasma stability (LC-MS/MS assay), mouse plasma, with and without AEBSF; format: in vitro ADME
Procedure: I-1a plasma stability studies were conducted in human and mouse plasma.
In vitro plasma stability assay measures the extent of degradation of compounds in plasma.
Peptides or BDCs are incubated at 37° C. in plasma (mouse or human) at low micromolar concentrations for several hours. The stability is quantitatively measured by LC-MS/MS.
Add 8 μL of the 160 μM DMSO stock of peptide or BDC and add 8 μL of 160 μM DMSO stock of 06-34-18-N182 as internal standard to 304 μL of plasma (152 μL*2) for a final concentration of 4 μM (5% DMSO).
Incubate at 37° C. in 100% humidity.
Pipette out 40 μL for 7 timepoints: time 0, 1 h, 2 h, 4 h, 6 h, 8 h, 24 h into a 1.5 mL Eppendorf. Store at −80° C. immediately. (total volume of samples?×40=280 μL).
Add to the sample the extraction solvent. The extraction solvent contains 1 part of water, 3 parts of methanol, and 3 parts of acetonitrile.
To the time course samples add 120 μL of extraction solvent, mix thoroughly with pipette and gently vortex.
Centrifuge for 40 minutes at 14000 rpm at 4° C.
Transfer the supernatant to the LC-MS vials and run the experiment immediately afterwards.
It is recommend to follow one transition for the peptide of BDCs to study, and one transition for the internal standard 06-34-18-N182 at the same time. The most relevant Selected Ion Reaction (SIR) and Multiple Reaction Monitoring (MRM) transitions were determined for each peptide or BDC.
The analysis of the data has been performed using “QuanLynks” and “Sigmaplot” software.
For the studies depicted in FIGS. 1-3, the following conditions were used.
Column: Waters ACQUITY CSH Phenyl-Hexyl 1.7 μm 2.1×50 mm
Mobile Phase: […] ammonium bicarbonate in water; B=5 mM ammonium bicarbonate 10% water in acetonitrile.
Gradient: 5 to 60% B in 4 minutes at 0.6 mL/min flow.
To test the hypothesis that plasma instability in mouse was due to Ces1c, I-1a was incubated in mouse plasma both in the presence and absence of AEBSF,
Additionally, formation of the MMAE metabolite in mouse plasma (release of the toxin) was monitored both in the presence and absence of AEBSF.

11 tumor cell lines = assay: 11 cancer cell line panel cytotoxicity, statements on the whole panel; conditions: all tested cell lines; 72 hours
From the text: Details of the initial cell plating procedure are described in Table 3.
Data Details for Tables 5 and 6. Inhibition %=(Max−Sample value)/(Max−Min)*100.
The IC50 curves were generated by 4 Parameter Logistic Model—Sigmoidal Dose-Response Model as follows: Y=Bottom+(Top−Bottom)/(1+10^((log EC50-X)*HillSlope)).

[2] = Body weight of mice bearing EBC-1 xenograft (indirect measure of toxicity); format: in vivo, mouse
Procedure: All the procedures related to animal handling, care and the treatment in the study were performed according to the guidelines of the Association for Assessment and Accreditation of Laboratory Animal Care (AAALAC). At the time of routine monitoring, the animals were daily checked for any effects of tumor growth and treatments on normal behavior such as mobility, food and water consumption (by looking only), body weight gain/loss (body weights were measured every day), eye/hair matting and any other abnormal effect as stated in the protocol. Death and observed clinical signs were recorded on the basis of the numbers of animals within each subset.
Animal body weight was monitored regularly as an indirect measure of toxicity.

CC[C@H](C)[C@@H]([C@@H](CC(=O)N1CCC[C@H]1[C@H](OC)[C@@H](C)C(=O)N[C@H](C)[C@@H](O)c1ccccc1)OC)N(C)C(=O)[C@@H](NC(=O)[C@H](C(C)C)N(C)C(=O)OCc1ccc(NC(=O)[C@H](CCCNC(N)=O)NC(=O)[C@@H](NC(=O)CCCC(=O)NCCC(=O)N(C)CC(=O)N(C)CC(=O)N(C)CC(=O)N(C)CC(=O)N(C)CC(=O)N(C)CC(=O)N(C)CC(=O)N(C)CC(=O)N(C)CC(=O)N(C)CC(=O)NC(C)C(=O)NC2CSCc3cc4cc(c3)CSCC(NC(=O)C(C)NC(=O)C(Cc3cccc5ccccc35)NC(=O)C(CCC(=O)O)NC(=O)C(CC(N)=O)NC(=O)C(C)NC2=O)C(=O)NC(CCC(=O)O)C(=O)NC(CC(=O)O)C(=O)NC(Cc2ccccc2)C(=O)NC(Cc2ccc(O)cc2)C(=O)NC(CC(=O)O)C(=O)NC(C(C)(C)C)C(=O)NC(C(N)=O)CSC4)C(C)C)cc1)C(C)C (stereo partly shown) [Compound I-1a] (I: [Sar][Sar][Sar][Sar][Sar][Sar][Sar][Sar][Sar][Sar][ξA][ξC][ξA][ξN][ξE][ξ1Nal][ξA][ξC][ξE][ξD][ξF][ξY][ξD][ξTle][ξC]-NH2 / II: V[Cit][PABC][NMeV]V[Dil][Dolaproine]-X1; linker I:12-I:18-I:25 via TBMB; linker I:N-II:N via X2)
IC50 (L540 cells; 72 hour exposure (low/no MT1 expression), no block, read-out: Standard IC50): 1090 nM | Fold shift with bacitracin (L540 cells; 72 hour exposure, 1 mM bacitracin vs none): 2.3 | IC50 (L540 cells; read-out: IC50 with 1 mM bacitracin, 72 hour exposure, + 1 mM bacitracin): 2550 nM | half-life at 4 μM ([1]; mouse plasma without AEBSF, pH 7.4 at 37° C.): 24 h | remaining at 24 h, 4 μM ([1]; mouse plasma without AEBSF, pH 7.4 at 37° C., read-out: % remained after 24 hours incubation): 50% | formation of the MMAE metabolite (release of the toxin) ([1]; mouse plasma, in the absence of AEBSF): I-1a degradation tracks with the appearance of free MMAE | formation of the MMAE metabolite (release of the toxin) ([1]; mouse plasma, in the presence of AEBSF): lack of formation of free MMAE | half-life at 1 μM ([1]; mouse plasma, 1 μM, pH 7.4 at 37° C.): 6.4 h | remaining at 24 h, 1 μM ([1]; mouse plasma, 1 μM, pH 7.4 at 37° C., read-out: % remained after 24 hours incubation): 57% | half-life at 4 μM ([1]; with AEBSF (concentration not stated), mouse plasma +AEBSF, pH 7.4 at 37° C.): > 24 h | remaining at 24 h, 4 μM ([1]; with AEBSF (concentration not stated), mouse plasma +AEBSF, pH 7.4 at 37° C., read-out: % remained after 24 hours incubation): 100% | cytotoxic activity over the cell line panel (in words) (11 tumor cell lines): works well on all cell lines except HCT-15 | Body Weight ([2]; 1 mg/kg i.v. tiw x2 w, day 0): 23.4 g | Body Weight ([2]; 1 mg/kg i.v. tiw x2 w, day 2): 23.3 g | Body Weight ([2]; 1 mg/kg i.v. tiw x2 w, day 4): 23.6 g | Body Weight ([2]; 1 mg/kg i.v. tiw x2 w, day 7): 23.8 g | Body Weight ([2]; 1 mg/kg i.v. tiw x2 w, day 9): 24.0 g | Body Weight ([2]; 1 mg/kg i.v. tiw x2 w, day 11): 24.0 g | Body Weight ([2]; 1 mg/kg i.v. tiw x2 w, day 14): 23.8 g | Body Weight ([2]; 3 mg/kg i.v. tiw x2 w, day 0): 21.9 g | Body Weight ([2]; 3 mg/kg i.v. tiw x2 w, day 2): 21.4 g | Body Weight ([2]; 3 mg/kg i.v. tiw x2 w, day 4): 21.7 g | Body Weight ([2]; 3 mg/kg i.v. tiw x2 w, day 7): 22.3 g | Body Weight ([2]; 3 mg/kg i.v. tiw x2 w, day 9): 22.4 g | Body Weight ([2]; 3 mg/kg i.v. tiw x2 w, day 11): 22.0 g | Body Weight ([2]; 3 mg/kg i.v. tiw x2 w, day 14): 22.0 g | Body Weight ([2]; 10 mg/kg i.v. tiw x2 w, day 0): 23.1 g | Body Weight ([2]; 10 mg/kg i.v. tiw x2 w, day 2): 21.8 g | Body Weight ([2]; 10 mg/kg i.v. tiw x2 w, day 4): 20.8 g | Body Weight ([2]; 10 mg/kg i.v. tiw x2 w, day 7): 19.3 g | Body Weight ([2]; 10 mg/kg i.v. tiw x2 w, day 9): 22.0 g | Body Weight ([2]; 10 mg/kg i.v. tiw x2 w, day 11): 20.6 g | Body Weight ([2]; 10 mg/kg i.v. tiw x2 w, day 14): 22.4 g | effect on body weight (in words) ([2]; 10 mg/kg, 3× weekly schedule for two weeks): brief body weight loss which is reversible upon discontinuation of treatment
